Assay results reported in article PMC6404747.

Molecular target: Smurf (UniProt Q9V853)
Experiment: co-IP Myc-Smo / Fg-Smurf
Settings: reference: wild-type Myc-Smo plus Hh; sites S667,S687,S740

binding against the reference: stronger
Substance: Smoothened (Smo) (from UniProt P91682) Myc-SmoSA plus Hh
